Starred links: 1 amine or outer side, 2 acyl side, 3 side chain; linkers in the order of their positions; H or OH if unused. Non-standard residues stand in square brackets, D forms with d. No end group written: not given here. Phe(4-(5-CO2H-2-pyrimidyl)) = N[C@@H](Cc1ccc(-c2ncc(C(=O)O)cn2)cc1)C(=O)O; Phe(4-(4-Ac-piperazinyl)) = CC(=O)N1CCN(c2ccc(C[C@H](N)C(=O)O)cc2)CC1; dPro(4R-(4-pyridylmethyl)) = O=C(O)[C@H]1C[C@@H](Cc2ccncc2)CN1; Ala(piperidin-4-yl) = O=C([C@H](CC1CCN([*:3])CC1)N[*:1])[*:2]; Trp(βS-Me,4-F) = C[C@@H](c1c[nH]c2cccc(F)c12)[C@H](N)C(=O)O; Bip(4'-COOH) = N[C@@H](Cc1ccc(-c2ccc(C(=O)O)cc2)cc1)C(=O)O; Ala(1-bicyclo(1.1.1)pentyl) = N[C@@H](CC12CC(C1)C2)C(=O)O; dPro(4R-Bzl(4-F)) = O=C(O)[C@H]1C[C@@H](Cc2ccc(F)cc2)CN1; Ala(morpholin-4-yl) = N[C@@H](CN1CCOCC1)C(=O)O; Ala(piperazin-1-yl) = N[C@@H](CN1CCNCC1)C(=O)O; Ala(pyrimidin-5-yl) = N[C@@H](Cc1cncnc1)C(=O)O; Phe(4-COOH) = N[C@@H](Cc1ccc(C(=O)O)cc1)C(=O)O; Pro(cis-4-F) = O=C(O)[C@@H]1C[C@H](F)CN1; cisHyp = O=C(O)[C@@H]1C[C@H](O)CN1; d(αMeD) = C[C@@](N)(CC(=O)O)C(=O)O; 4Pal = N[C@@H](Cc1ccncc1)C(=O)O; aThr = C[C@H](O)[C@H](N)C(=O)O; αMeD = C[C@](N)(CC(=O)O)C(=O)O; d(αMeS) = C[C@@](N)(CO)C(=O)O; αMeK = C[C@](N)(CCCCN)C(=O)O; Dab = NCC[C@H](N)C(=O)O; Aib = CC(C)(N)C(=O)O
What follows are binders tested against Recombinant human IL-1β (BioLegend 579404) (human, UniProt P01584 117-269) (assay: cell-based or functional assay).

Row | Binder | MRC5 IC50
1 | [Phe(4-(5-CO2H-2-pyrimidyl))][Ala(1-bicyclo(1.1.1)pentyl)][Phe(4-COOH)]G[cisHyp][Trp(βS-Me,4-F)][Aib]SW[Aib][Ala(pyrimidin-5-yl)]Q[Dab]G[dPro(4R-(4-pyridylmethyl))] (lactam (positions not given here); also: macrolactam ring, closure sites not given here) [SEQ ID NO: 185] | 0.043 nM
2 | [Phe(4-(5-CO2H-2-pyrimidyl))][4Pal][Phe(4-COOH)]G[Pro(cis-4-F)][Trp(βS-Me,4-F)][Aib]SW[αMeD][Ala(pyrimidin-5-yl)]Q[Dab]G[dPro(4R-(4-pyridylmethyl))] (lactam (positions not given here); also: macrolactam ring, closure sites not given here) [SEQ ID NO: 187] | 0.015 nM
3 | [Bip(4'-COOH)][Ala(1-bicyclo(1.1.1)pentyl)][Phe(4-COOH)]G[cisHyp][Trp(βS-Me,4-F)][Aib][aThr]W[d(αMeD)][Ala(pyrimidin-5-yl)]Q[Dab]G[dPro(4R-(4-pyridylmethyl))] (lactam (positions not given here); also: macrolactam ring, closure sites not given here) [SEQ ID NO: 182] | 0.049 nM
4 | cyclo([Bip(4'-COOH)][Ala(1-bicyclo(1.1.1)pentyl)][Phe(4-COOH)]G[Pro(cis-4-F)][Trp(βS-Me,4-F)][Aib]SW[αMeK][Ala(morpholin-4-yl)]QSG[dPro(4R-Bzl(4-F))]) (ring closure inferred; not fully specified (bridges); printed as Bip4CO2H-AlaPent-Phe4COOH-G-Proc4F-SbMeW4F-Aib-S-W-aMeK-AlaMph-Q-S-G-dProc4Bn4F, cyclic (macrolactam)) [SEQ ID NO: 173] | 0.037 nM
5 | cyclo([Bip(4'-COOH)][Ala(1-bicyclo(1.1.1)pentyl)][Phe(4-COOH)]G[Pro(cis-4-F)][Trp(βS-Me,4-F)][Aib]SW[αMeK][Ala(piperazin-1-yl)]QSG[dPro(4R-Bzl(4-F))]) (ring closure inferred; not fully specified (bridges); printed as Bip4CO2H-AlaPent-Phe4COOH-G-Proc4F-SbMeW4F-Aib-S-W-aMeK-AlaPiperaz-Q-S-G-dProc4Bn4F, cyclic (macrolactam)) [SEQ ID NO: 175] | 0.037 nM
6 | [Bip(4'-COOH)][Ala(1-bicyclo(1.1.1)pentyl)][Phe(4-COOH)]G[Pro(cis-4-F)][Trp(βS-Me,4-F)][Aib]SW[Aib][Ala(morpholin-4-yl)]QSG[dPro(4R-(4-pyridylmethyl))] (lactam (positions not given here); also: macrolactam ring, closure sites not given here) [SEQ ID NO: 179] | 0.029 nM
7 | cyclo([Bip(4'-COOH)][Ala(1-bicyclo(1.1.1)pentyl)][Phe(4-COOH)]G[Pro(cis-4-F)][Trp(βS-Me,4-F)][Aib]EW[Aib][Ala(piperidin-4-yl)]QSG[dPro(4R-(4-pyridylmethyl))]) (ring closure inferred; not fully specified (bridges); printed as Bip4CO2H-AlaPent-Phe4COOH-G-Proc4F-SbMeW4F-Aib-E-W-Aib-AlaPip4-Q-S-G-dProc4CH24Pal, cyclic (macrolactam)) [SEQ ID NO: 176] | 0.036 nM
8 | cyclo([Bip(4'-COOH)][Ala(1-bicyclo(1.1.1)pentyl)][Phe(4-COOH)]G[Pro(cis-4-F)][Trp(βS-Me,4-F)][Aib]EW[d(αMeS)][Ala(morpholin-4-yl)]QSG[dPro(4R-(4-pyridylmethyl))]) (ring closure inferred; not fully specified (bridges); printed as Bip4CO2H-AlaPent-Phe4COOH-G-Proc4F-SbMeW4F-Aib-E-W-daMeS-AlaMph-Q-S-G-dProc4CH24Pal, cyclic (macrolactam)) [SEQ ID NO: 177] | 0.031 nM
9 | cyclo([Bip(4'-COOH)][Ala(1-bicyclo(1.1.1)pentyl)][Phe(4-COOH)]G[Pro(cis-4-F)][Trp(βS-Me,4-F)][Aib]EW[d(αMeS)][Ala(piperidin-4-yl)]QSG[dPro(4R-(4-pyridylmethyl))]) (ring closure inferred; not fully specified (bridges); printed as Bip4CO2H-AlaPent-Phe4COOH-G-Proc4F-SbMeW4F-Aib-E-W-daMeS-AlaPip4-Q-S-G-dProc4CH24Pal, cyclic (macrolactam)) [SEQ ID NO: 178] | 0.041 nM
10 | cyclo([Bip(4'-COOH)][Ala(1-bicyclo(1.1.1)pentyl)][Phe(4-COOH)]G[Pro(cis-4-F)][Trp(βS-Me,4-F)][Aib]SW[d(αMeS)][Ala(morpholin-4-yl)]Q[Dab]G[dPro(4R-Bzl(4-F))]) (ring closure inferred) [SEQ ID NO: 170] | 0.015 nM
11 | [Bip(4'-COOH)][Ala(1-bicyclo(1.1.1)pentyl)][Phe(4-COOH)]G[Pro(cis-4-F)][Trp(βS-Me,4-F)][Aib]SW[Aib][Ala(piperidin-4-yl)]QSG[dPro(4R-(4-pyridylmethyl))] (lactam (positions not given here); also: macrolactam ring, closure sites not given here) [SEQ ID NO: 180] | 0.027 nM
12 | cyclo([Bip(4'-COOH)][Ala(1-bicyclo(1.1.1)pentyl)][Phe(4-COOH)]G[Pro(cis-4-F)][Trp(βS-Me,4-F)][Aib]SW[Aib][Ala(piperazin-1-yl)]Q[Dab]G[dPro(4R-Bzl(4-F))]) (ring closure inferred) [SEQ ID NO: 168] | 0.018 nM
13 | cyclo([Bip(4'-COOH)][Ala(1-bicyclo(1.1.1)pentyl)][Phe(4-COOH)]G[Pro(cis-4-F)][Trp(βS-Me,4-F)][Aib]SW[d(αMeS)][Ala(piperazin-1-yl)]Q[Dab]G[dPro(4R-Bzl(4-F))]) (ring closure inferred) [SEQ ID NO: 171] | 0.016 nM
14 | cyclo([Bip(4'-COOH)][Ala(1-bicyclo(1.1.1)pentyl)][Phe(4-COOH)]G[Pro(cis-4-F)][Trp(βS-Me,4-F)][Aib]SW[Aib][Ala(piperidin-4-yl)]Q[Dab]G[dPro(4R-Bzl(4-F))]) (ring closure inferred) [SEQ ID NO: 169] | 0.019 nM
15 | cyclo([Bip(4'-COOH)][Ala(1-bicyclo(1.1.1)pentyl)][Phe(4-COOH)]G[Pro(cis-4-F)][Trp(βS-Me,4-F)][Aib]SW[d(αMeS)][Ala(piperidin-4-yl)]Q[Dab]G[dPro(4R-Bzl(4-F))]) (ring closure inferred; not fully specified (bridges); printed as Bip4CO2H-AlaPent-Phe4COOH-G-Proc4F-SbMeW4F-Aib-S-W-daMeS-AlaPip4-Q-Dab-G-dProc4Bn4F, cyclic (macrolactam)) [SEQ ID NO: 172] | 0.016 nM
16 | cyclo([Bip(4'-COOH)][Ala(1-bicyclo(1.1.1)pentyl)][Phe(4-COOH)]G[Pro(cis-4-F)][Trp(βS-Me,4-F)][Aib]SW[αMeK][Ala(morpholin-4-yl)]Q[Dab]G[dPro(4R-Bzl(4-F))]) (ring closure inferred; not fully specified (bridges); printed as Bip4CO2H-AlaPent-Phe4COOH-G-Proc4F-SbMeW4F-Aib-S-W-aMeK-AlaMph-Q-Dab-G-dProc4Bn4F, cyclic (macrolactam)) [SEQ ID NO: 174] | 0.025 nM
17 | [Phe(4-(4-Ac-piperazinyl))][4Pal][Phe(4-COOH)]G[Pro(cis-4-F)][Trp(βS-Me,4-F)][Aib]SW[αMeD][Ala(pyrimidin-5-yl)]Q[Dab]G[dPro(4R-Bzl(4-F))] (lactam (positions not given here); also: macrolactam ring, closure sites not given here) [SEQ ID NO: 184] | 0.014 nM
18 | [Phe(4-(5-CO2H-2-pyrimidyl))][4Pal][Phe(4-COOH)]G[Pro(cis-4-F)][Trp(βS-Me,4-F)][Aib]SW[Aib][Ala(pyrimidin-5-yl)]Q[Dab]G[dPro(4R-(4-pyridylmethyl))] (lactam (positions not given here); also: macrolactam ring, closure sites not given here) [SEQ ID NO: 186] | 0.015 nM
19 | [Phe(4-(4-Ac-piperazinyl))][4Pal][Phe(4-COOH)]G[Pro(cis-4-F)][Trp(βS-Me,4-F)][Aib]SW[Aib][Ala(pyrimidin-5-yl)]Q[Dab]G[dPro(4R-Bzl(4-F))] (lactam (positions not given here); also: macrolactam ring, closure sites not given here) [SEQ ID NO: 183] | 0.025 nM
20 | [Bip(4'-COOH)][Ala(1-bicyclo(1.1.1)pentyl)][Phe(4-COOH)]G[Pro(cis-4-F)][Trp(βS-Me,4-F)][Aib]SW[d(αMeS)][Ala(piperidin-4-yl)]QSG[dPro(4R-(4-pyridylmethyl))] (lactam (positions not given here); also: macrolactam ring, closure sites not given here) [SEQ ID NO: 181] | 0.021 nM
